Experimental findings from paper PMC3333882 (Nucleic Acids Research, 2011) are described below.

For the assay, the target named is MEF2C-Flag (myocyte enhancer factor 2C with Flag tag) (UniProt Q8CFN5 1-474). The experiment in a line: co-IP.
Sequence of MEF2C-Flag (myocyte enhancer factor 2C with Flag tag) (Q8CFN5 whole entry): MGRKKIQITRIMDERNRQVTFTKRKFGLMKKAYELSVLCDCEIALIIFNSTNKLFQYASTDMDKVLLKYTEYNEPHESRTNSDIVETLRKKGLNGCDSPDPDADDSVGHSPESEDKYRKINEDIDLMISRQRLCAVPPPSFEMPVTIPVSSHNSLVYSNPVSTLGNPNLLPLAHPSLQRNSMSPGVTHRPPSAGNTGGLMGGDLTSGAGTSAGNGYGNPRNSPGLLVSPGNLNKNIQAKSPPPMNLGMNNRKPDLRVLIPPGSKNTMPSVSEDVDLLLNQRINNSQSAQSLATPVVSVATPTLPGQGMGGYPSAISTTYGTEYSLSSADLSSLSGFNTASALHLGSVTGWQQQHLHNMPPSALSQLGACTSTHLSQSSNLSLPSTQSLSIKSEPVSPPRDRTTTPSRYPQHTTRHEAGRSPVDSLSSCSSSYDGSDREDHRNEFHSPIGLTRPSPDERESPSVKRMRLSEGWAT

B1: Gli2 (glioma-associated factor 2) (natural protein, mouse, UniProt Q0VGV1 1-1540, looked up)
chain: METSAPAPALEKKEAKSGLLEDSSFPDPGKKACPLAVAAAVAAHGVPQQLLPAFHAPLPIDMRHQEGRYHYDPHSVHSVHGPPTLSGSPFISDISLIRLSPHPAGPGESPFSAHHPYVNPHMEHYLRSVHSSPTLSMISAARGLSPADVAHEHLKERGLFSLAAPGTNPSDYYHQMTLMASHPTPYGDLLMQSGGAASAPHLHDYLNPVDASRFSSPRVTPRLSRKRALSISPLSDASLDLQRMIRTSPNSLVAYINNSRSSSAASGSYGHLSAGALSPAFTFPHPINPVAYQQILSQQRGLGSAFGHTPPLIQPSPTFLAQQPMTLTSISTMPTQLSSSSSNCLNDANQNKQNSESAVSSTVNPITIHKRSKVKTEAEGLRPASPLGLTQEQLADLKEDLDRDDCKQEAEGVIYETNCHWADCTKEYDTQEQLVHHINNEHIHGEKKEFVCRWQACTREQKPFKAQYMLVVHMRRHTGEKPHKCTFEGCSKAYSRLENLKTHLRSHTGEKPYVCEHEGCNKAFSNASDRAKHQNRTHSNEKPYICKIPGCTKRYTDPSSLRKHVKTVHGPDAHVTKKQRNDVHVRAPLLKENGDNEASAEPGGRGPEESVEASSTSHTVEDCLHIKAIKTESSGLCQSSPGAQSSCSSEPSPLGSAPNNDSGMEMPGTGPGSLGDLTALADTCPGADTSALAAPSTGGLQLRKHMSTVHRFEQLKREKLKSLKDSCSWAGPAPHTRNTKLPPLPVNGSVLENFNNTGGGGPAGLLPSQRLPELTEVTMLSQLQERRDSSTSTMSSAYTVSRRSSGISPYFSSRRSSEASPLGGLRPHNASSADSYDPISTDASRRSSEASQCSGGGPGLLNLTPAQQYNLRAKYAAATGGPPPTPLPGLDRVSLRTRLALLDAPERALPGACPHPLGPRRGSDGPTYSHGHGHGYAGAAPAFPHEGPNSSTRRASDPVRRPDPLILPRVQRFHSTHNMNPGSLPPCADRRGLHVQSHPSVDSNLTRNAYSPRPPSINENVVMEAVAAGVDGPGLECDLGLVEDELVLPDDVVQYIKAHTGGTLDDGIRQGYPTEGTGFPENSKLPSPGLQGHRRLAAADSNMGPSAPGLGGCQLSYSPSSNLNKSNMPVQWNEVSSGTVDALPTQVKPPPFPHSNLAVVQQKPAFGQYPGYNPQSVQSSSGGLDSTQPHLQLRGAPSASRGSYTQQPRQPAAGSQCLGMSAAMSPQASYSQAHPQLSPNIVSGSLNQFSPSCSNMAAKPSHLGLPQQMEVVPNATIMNGHQREHGVPNSSLAAVSQPHPVLSYPQQDSYQQGSNLLSSHQPGFMESQQNAGFGLMQPRPPLEPNTASRHRGVRSGQQQLYARTTGQAMVTSANQETAEAMPKGPAGTMVSLAPQPSQDTGRAQDQNTLYYYGQIHMYEQNGGCPAVQPQPPQPQACSDSIQPEPLPSPGVNQVSSTVDSQLLEPPQIDFDAIMDDGDHSSLFSGALSPTLLHNLSQNSSRLTTPRNSLTLPSIPAGISNMAVGDMSSMLTSLAEESKFF
Turning to B1, the “fold amount co-immunoprecipitated against the Flag-vector control” value worked out at 4 fold.
